Experimental data as given in patent publication US9663815B2, “Cytosolically-active peroxidases as reporters for microscopy” (Massachusetts Institute of Technology, priority 2011, dated 2017).
Positions count from the first letter of the chain named. Names and notes keep the numbering of the source.

What was measured:
HEK cells = assay: DAB staining of transfected cells (brightfield); assay type: cell-based
Experimental: Next, the activity of wt APX and mAPX was compared in mammalian cells.
(§1) To generate a monomeric APX with improved activity, the two mAPX mutations (K14D/E112K) were added to each of the activity-enhanced mutants. […] The sextuple mutant (K14D, E112K, W41F, D133A, T135F, K136F=mAPX−FFAF), was compared to mAPX+W41F within cells. HEK cells were transfected with constructs targeted to the mitochondrial matrix (Table 3), while COS-7 cells were transfected with constructs fused to the C-terminus of connexin 43 (Table 3). After fixation, the cells were treated with DAB and H2O2 to generate DAB polymer. […] After fixation, cells were stained with anti-Flag (for matrix) or anti-myc (for connexin) antibody to visualize peroxidase expression levels. […] Therefore mAPX+W41F (K14D/E112K/W41F) was selected, denoted as “APEX” (for Enhanced APX), as the optimized reporter for subsequent experiments.
A solution of 4% formaldehyde (freshly depolymerized from paraformaldehyde) with 2% glutaraldehyde in 10 mM phosphate buffered saline (PBS) was added to cells 24 hours after transfection. Cells were treated for 3 min at room temperature, then 30 min on ice. Cells were then washed 5×2 min using ice cold 10 mM PBS. Cells were blocked with 20 mM glycine for 5 min on ice. Cells were then washed 5×2 min with ice-cold 10 mM PBS. Cells were then treated with an ice-cold solution of DAB (0.5 mg/mL) and H2O2 (0.03%) in 10 mM PBS for 20 min. Cells were then washed 5×2 min with ice-cold 10 mM PBS. Cells were treated with 2% OsO4 in ice-cold 10 mM PBS for 30 min, then washed 5×2 min with ice-cold distilled deionized water. Cells were then placed under ice-cold 2% aqueous uranyl acetate for 24 hours.
(§2) Any cell displaying detectable GFP fluorescence was considered transfected. Contact sites between neighboring transfected cells were identified using DIC imaging. Gap junctions were identified as lines of GFP fluorescence unambiguously overlaying with the plasma membrane of two transfected cells based on DIC. DAB stain intensity for APX-NES variants was analyzed using SlideBook. Transfected cells were identified by nuclear YFP fluorescence. In each transfected cell, a representative DAB-stained region was encircled, and its average brightfield intensity was calculated. Background intensity, determined for each field of view by encircling a representative region in the cytosol of an untransfected cell, was subtracted out. The bar graph in FIG. 2c represents mean data from >60 transfected cells.

[1] = Gel filtration chromatography, oligomerization state; assay type: physicochemical; conditions: PBS pH 7.4
Experimental: APX, fluorescent protein, or miniSOG preparations were diluted to the desired concentrations using chilled (4° C.) PBS and then allowed to incubate at room temperature for 30 min to overnight. Samples (100 μL) were run on a Waters HPLC system over a Superdex 75 10/300 column (GE Healthcare) that had been pre-equilibrated in PBS, pH 7.4. Samples were run isocratically in PBS at a flow rate of 0.5 mL/min. Elution of APX was monitored at 280 nm and 405 nm (heme absorbance). Empower software (Waters) was used for analysis of elution profiles. Apparent MWs were determined against low molecular weight standards (GE). […] The apparent MW of the monomer for wt APX was assumed to be equal to the apparent MW of mAPX at 0.25 μM.
To investigate whether this localization is an artifact of APEX dimerization at high concentrations, the experiment was repeated using a tandem dimer of APX^W41F (two APX^W41F proteins linked with a short amino acid chain, denoted tdAPX) as well as miniSOG in place of APEX. Additionally, gel filtration chromatography (GFC) was used to assess the relative abundance of oligomers that formed at increasing tdAPX concentrations in vitro (5 μM, 20 μM, and 47 μM). Three different linker lengths (18, 23, and 28 amino acids) were tested. His6-tagged proteins were expressed and purified from E. coli. All three variants gave a major peak with an apparent molecular weight (MW) of ˜56 kDa, as expected for tdAPX. The apparent MW of the major peak remained constant as a function of concentration for all three constructs. […] Therefore, the 28 amino acid linker variant was selected as the optimized tandem dimer to be used in EM experiments.

connexin43 (Cx43) = assay: Connexin43 fusion localization to gap junctions; assay type: cell-based, rat; conditions: for localization of connexin43 fusion / gap junction formation: fused to connexin43
Experimental: Both mAPX and wt APX were fused to connexin43 (Cx43), a protein that is sensitive to oligomeric tags (FIG. 4d) (McKinney, et. al., Nat Meth 6, 131-133 (2009); Lauf, et. al., FEBS letters 498, 11-15 (2001)).
as §1, §2

[2] = test system: MCU (mitochondrial calcium uniporter); assay: Functional assay for Ca2+ uptake of MCU fusions; assay type: cell-based, human; conditions: fusion to MCU, versus Flag-tagged MCU; data not shown
COS-7 cells = assay: EM imaging after DAB/OsO4 staining; assay type: cell-based
Experimental: Transfected cells cultured on poly-d-lysine coated glass bottom dishes (P35GC-0-14-C, MatTek Corp.) were fixed using room temperature 2% glutaraldehyde (Electron Microscopy Sciences) in 100 mM sodium cacodylate buffer with 2 mM CaCl2, pH 7.4, then quickly moved to ice. Cells were kept between 0 and 4° C. for all subsequent steps until resin infiltration. After 30-60 min, cells were rinsed 5×2 min in chilled buffer, then treated for 5 min in buffer containing 20 mM glycine to quench unreacted glutaraldehyde, followed by 5×2 min rinses in chilled buffer. A freshly-diluted solution of 0.5 mg/mL 3,3′-diaminobenzidine (DAB) tetrahydrochloride or the DAB free base (Sigma) dissolved in HCl were combined with 0.03% (v/v) H2O2 in chilled buffer, and the solution was added to cells for 1 to 15 min, depending on the sample. The reaction product generation could be monitored by transmitted LM. To halt the reaction, the DAB solution was removed, and cells were rinsed 5×2 min with chilled buffer. For correlated LM-EM imaging of connexin43-GFP-APEX, the procedure was the same except cells were immersed in 2% glutaraldehyde for ˜16 h, and regions of interest were identified by GFP fluorescence prior to treatment with DAB. After the DAB reaction was halted, cells were post-fixed for 30 min using 2% osmium tetroxide (Electron Microscopy Sciences) in chilled buffer. Cells were rinsed 5×2 min in chilled distilled water, then placed in chilled 2% aqueous uranyl acetate (Electron Microscopy Sciences) overnight. […]
DAB-stained areas of embedded cultured cells were identified by transmitted light and the areas of interest were sawed out using a jeweler's saw and mounted on dummy acrylic blocks with cyanoacrylic adhesive. […] Electron micrographs recorded using a JEOL 1200 TEM operating at 80 keV.

[3] = Guaiacol activity assay (Michaelis-Menten kinetics); assay type: biochemical; conditions: guaiacol as substrate, purified enzyme
Experimental: Data points represent the mean±standard deviation of 2-3 independent measurements. Initial rates are shown as a function of guaiacol concentration. H2O2 concentration was 90 μM, and enzyme concentration was 20 nM in all trials. Oxidation to tetraguaiacol was monitored by absorbance at 470 nm (ε470=22×10^3 M^−1 cm^−1)^2.
High activity toward guaiacol generally correlated well with robust polymerization of DAB in vitro. Guaiacol assays were performed on a Nanodrop 2000c UV-vis spectrophotometer (Thermo Scientific) using its cuvette reader. HRP (Sigma) was prepared as a 10 μM stock in PBS, flash frozen and stored at −80° C., and thawed immediately before use. Guaiacol peroxidase activity was measured according to the protocol of Lad et. al.^35 Oxidation to tetraguaiacol was monitored by absorbance at 470 nm (ε470=22×10^3 M^−1 cm^−1). Kcat and KM were calculated by nonlinear regression fitting to the Michaelis-Menten equation using OriginPro (OriginLab Corporation). All values are reported as the mean±standard deviation for 2-3 independent Michaelis-Menten fittings, with each fitting using at least 5 values of substrate concentration ranging between 0.25 and 30 mM.
In order to improve the performance of mAPX in mammalian cells, monomeric APX was engineered with improved activity toward DAB in the hope that faster kinetics could compensate for diminished heme binding. The substrate binding site of APX was compared to that of HRP, which has faster kinetics and broader aromatic substrate tolerance (Henriksen, et. al., Journal of Biological Chemistry 274, 35005-35011 (1999)). In order to make APX more HRP-like, seven mutants of APX were designed that incorporated mostly aromatic residues into the active site (FIG. 5a). A colorimetric assay was employed using guaiacol, a prototypical aromatic peroxidase substrate, to determine Michaelis-Menten parameters (Kumar, et. al., Journal of Cell Science 108, 3725-3734 (1995); Henriksen, et. al., Journal of Biological Chemistry 274, 35005-35011 (1999)) (FIG. 5b and FIG. 10). […]

B1: APEX: triple mutant K14D/W41F/E112K of pea APX, Enhanced APX reporter (protein, listed as Pisum sativum)
chain: MGKSYPTVSPDYQDAIEKAKRKLRGFIAEKKCAPLILRLAFHSAGTFDSKTKTGGPFGTIKHQAELAHGANNGLDIAVRLLEPIKEQFPIVSYADFYQLAGVVAVEITGGPKVPFHPGREDKPEPPPEGRLPDATKGSDHLRDVFGKAMGLSDQDIVALSGGHTIGAAHKERSGFEGPWTSNPLIFDNSYFTELLTGEKDGLLQLPSDKALLTDSVFRPLVEKYAADEDVFFADYAEAHLKLSELGFAEA
With B1 the “DAB staining activity in mitochondrial matrix” value (HEK cells; mitochondrial matrix-targeted constructs, HEK cells) was “much stronger DAB stain”, the oligomerization state [1] was “equally monomeric to mAPX” and the “DAB stain of connexin fusion” value (connexin43 (Cx43); COS-7 cells, fused to C-terminus of connexin 43) was “strong DAB stain”. For the same molecule, the “localization of connexin43 fusion / gap junction formation” value (connexin43 (Cx43)) was “behaves well as a fusion to Cx43”, the “localization of connexin43 fusion / gap junction formation” value (connexin43 (Cx43); listed as mAPX+W41F) was “incorporated well into gap junctions” and the “Ca2+ uptake of MCU fusion” value [2] was “performed comparably to MCU appended to a small Flag epitope tag”. For the same molecule, the “EM contrast / DAB staining, ER lumen” value (COS-7 cells; KDEL-targeted, COS-7) was “dense DAB staining throughout the ER tubular network”, the “EM contrast / DAB staining, mitochondrial matrix” value (COS-7 cells; Mito matrix-APEX, COS-7) was “strong contrast and well-defined cristae structures” and the “activity in the intermembrane space (IMS)” value (COS-7 cells; separate controls) was “highly active”.

B2: mAPX-NES: Flag-mAPX with C-terminal nuclear export signal, cytosolic expression (protein, UniProt P48534 2-250, looked up, variant K14D E112K)
L-ascorbate peroxidase, …: GKSYPTVSPDYQDAIEKAKRKLRGFIAEKKCAPLILRLAWHSAGTFDSKTKTGGPFGTIKHQAELAHGANNGLDIAVRLLEPIKEQFPIVSYADFYQLAGVVAVEITGGPKVPFHPGREDKPEPPPEGRLPDATKGSDHLRDVFGKAMGLSDQDIVALSGGHTIGAAHKERSGFEGPWTSNPLIFDNSYFTELLTGEKDGLLQLPSDKALLTDSVFRPLVEKYAADEDVFFADYAEAHLKLSELGFAEA
modifications: N-terminal Flag tag; C-terminal nuclear export signal
notes: Flag-mAPX with C-terminal nuclear export signal, cytosolic expression
With B2 the “activity after culturing the cells with heme” value (HEK cells; cytosol (NES), heme added after transfection) was “significantly boosted”.

B3: W41F/G69F/D133A/T135F/K136F: quintuple, most HRP-like active-site mutant of pea APX (protein, UniProt P48534 2-250, looked up, variant W41F G69F D133A T135F K136F)
L-ascorbate peroxidase, …: B2 L-ascorbate peroxidase, … with D13K, W40F, G68F, K111E, D132A, T134F, K135F
In the case of B3, the “activity in vitro (guaiacol)” value [3] is reported as “most active”.

B4: mAPX−FFAF: sextuple mutant K14D, E112K, W41F, D133A, T135F, K136F of pea APX (protein, UniProt P48534 2-250, looked up, variant K14D E112K W41F D133A T135F K136F)
L-ascorbate peroxidase, …: B2 L-ascorbate peroxidase, … with W40F, D132A, T134F, K135F
With B4 the “localization of connexin43 fusion / gap junction formation” value (connexin43 (Cx43)) was “formed very few gap junctions”.
